From publication PMC7614990 (Science (New York, N.Y.), 2021)

B1: SF3B1 (natural protein)
chain: MAKIAKTHEDIEAQIREIQGKKAALDEAQGVGLDSTGYYDQEIYGGSDSRFAGYVTSIAATELEDDDDDYSSSTSLLGQKKPGYHAPVALLNDIPQSTEQYDPFAEHRPPKIADREDEYKKHRRTMIISPERLDPFADGGKTPDPKMNARTYMDVMREQHLTKEEREIRQQLAEKAKAGELKVVNGAAASQPPSKRKRRWDQTADQTPGATPKKLSSWDQAETPGHTPSLRWDETPGRAKGSETPGATPGSKIWDPTPSHTPAGAATPGRGDTPGHATPGHGGATSSARKNRWDETPKTERDTPGHGSGWAETPRTDRGGDSIGETPTPGASKRKSRWDETPASQMGGSTPVLTPGKTPIGTPAMNMATPTPGHIMSMTPEQLQAWRWEREIDERNRPLSDEELDAMFPEGYKVLPPPAGYVPIRTPARKLTATPTPLGGMTGFHMQTEDRTMKSVNDQPSGNLPFLKPDDIQYFDKLLVDVDESTLSPEEQKERKIMKLLLKIKNGTPPMRKAALRQITDKAREFGAGPLFNQILPLLMSPTLEDQERHLLVKVIDRILYKLDDLVRPYVHKILVVIEPLLIDEDYYARVEGREIISNLAKAAGLATMISTMRPDIDNMDEYVRNTTARAFAVVASALGIPSLLPFLKAVCKSKKSWQARHTGIKIVQQIAILMGCAILPHLRSLVEIIEHGLVDEQQKVRTISALAIAALAEAATPYGIESFDSVLKPLWKGIRQHRGKGLAAFLKAIGYLIPLMDAEYANYYTREVMLILIREFQSPDEEMKKIVLKVVKQCCGTDGVEANYIKTEILPPFFKHFWQHRMALDRRNYRQLVDTTVELANKVGAAEIISRIVDDLKDEAEQYRKMVMETIEKIMGNLGAADIDHKLEEQLIDGILYAFQEQTTEDSVMLNGFGTVVNALGKRVKPYLPQICGTVLWRLNNKSAKVRQQAADLISRTAVVMKTCQEEKLMGHLGVVLYEYLGEEYPEVLGSILGALKAIVNVIGMHKMTPPIKDLLPRLTPILKNRHEKVQENCIDLVGRIADRGAEYVSAREWMRICFELLELLKAHKKAIRRATVNTFGYIAKAIGPHDVLATLLNNLKVQERQNRVCTTVAIAIVAETCSPFTVLPALMNEYRVPELNVQNGVLKSLSFLFEYIGEMGKDYIYAVTPLLEDALMDRDLVHRQTASAVVQHMSLGVYGFGCEDSLNHLLNYVWPNVFETSPHVIQAVMGALEGLRVAIGPCRMLQYCLQGLFHPARKVRDVYWKIYNSIYIGSQDALIAHYPRIYNDDKNTYIRYELDYIL
B2: SF3B3 (natural protein)
chain: MFLYNLTLQRATGISFAIHGNFSGTKQQEIVVSRGKILELLRPDPNTGKVHTLLTVEVFGVIRSLMAFRLTGGTKDYIVVGSDSGRIVILEYQPSKNMFEKIHQETFGKSGCRRIVPGQFLAVDPKGRAVMISAIEKQKLVYILNRDAAARLTISSPLEAHKANTLVYHVVGVDVGFENPMFACLEMDYEEADNDPTGEAAANTQQTLTFYELDLGLNHVVRKYSEPLEEHGNFLITVPGGSDGPSGVLICSENYITYKNFGDQPDIRCPIPRRRNDLDDPERGMIFVCSATHKTKSMFFFLAQTEQGDIFKITLETDEDMVTEIRLKYFDTVPVAAAMCVLKTGFLFVASEFGNHYLYQIAHLGDDDEEPEFSSAMPLEEGDTFFFQPRPLKNLVLVDELDSLSPILFCQIADLANEDTPQLYVACGRGPRSSLRVLRHGLEVSEMAVSELPGNPNAVWTVRRHIEDEFDAYIIVSFVNATLVLSIGETVEEVTDSGFLGTTPTLSCSLLGDDALVQVYPDGIRHIRADKRVNEWKTPGKKTIVKCAVNQRQVVIALTGGELVYFEMDPSGQLNEYTERKEMSADVVCMSLANVPPGEQRSRFLAVGLVDNTVRIISLDPSDCLQPLSMQALPAQPESLCIVEMGGTEKQDELGERGSIGFLYLNIGLQNGVLLRTVLDPVTGDLSDTRTRYLGSRPVKLFRVRMQGQEAVLAMSSRSWLSYSYQSRFHLTPLSYETLEFASGFASEQCPEGIVAISTNTLRILALEKLGAVFNQVAFPLQYTPRKFVIHPESNNLIIIETDHNAYTEATKAQRKQQMAEEMVEAAGEDERELAAEMAAAFLNENLPESIFGAPKAGNGQWASVIRVMNPIQGNTLDLVQLEQNEAAFSVAVCRFSNTGEDWYVLVGVAKDLILNPRSVAGGFVYTYKLVNNGEKLEFLHKTPVEEVPAAIAPFQGRVLIGVGKLLRVYDLGKKKLLRKCENKHIANYISGIQTIGHRVIVSDVQESFIWVRYKRNENQLIIFADDTYPRWVTTASLLDYDTVAGADKFGNICVVRLPPNTNDEVDEDPTGNKALWDRGLLNGASQKAEVIMNYHVGETVLSLQKTTLIPGGSESLVYTTLSGGIGILVPFTSHEDHDFFQHVEMHLRSEHPPLCGRDHLSFRSYYFPVKNVIDGDLCEQFNSMEPNKQKNVSEELDRTPPEVSKKLEDIRTRYAF
B3: HTATSF1 in the 17S U2 snRNP eluted with 3C protease (natural protein)
chain: SGTNLDGNDEFDEQLRMQELYGDGKDGDTQTDAGGEPDSLGQQPTDTPYEWDLDKKAWFPKITEDFIATYQANYGFSNDGASSSTANVEDVHARTAEEPPQEKAPEPTDARKKGEKRKAESGWFHVEEDRNTNVYVSGLPPDITVDEFIQLMSKFGIIMRDPQTEEFKVKLYKDNQGNLKGDGLCCYLKRESVELALKLLDEDEIRGYKLHVEVAKFQLKGEYDASKKKKKCKDYKKKLSMQQKQLDWRPERRAGPSRMRHERVVIIKNMFHPMDFEDDPLVLNEIREDLRVECSKFGQIRKLLLFDRHPDGVASVSFRDPEEADYCIQTLDGRWFGGRQITAQAWDGTTDYQVEETSREREERLRGWEAFLNAPEANRGLRRSDSVSASERAGPSRARHFSEHPSTSKMNAQETATGMAFEEPIDEKKFEKTEDGGEFEEGASENNAKESSPEKEAEEGCPEKESEEGCPKRGFEGSCSQKESEEGNPVRGSEEDSPKKESKKKTLKNDCEENGLAKESEDDLNKESEEEVGPTKESEEDDSEKESDEDCSEKQSEDGSEREFEENGLEKDLDEEGSEKELHENVLDKELEENDSENSEFEDDGSEKVLDEEGSEREFDEDSDEKEEEEDTYEKVFDDESDEKEDEEYADEKGLEAADKKAEEGDADEKLFEESDDKEDEDADGKEVEDADEKLFEDDDSNEKLFDEEEDSSEKLFDDSDERGTLGGFGSVEEGPLSTGSSFILSSDDDDDDI

Legend:
Assay in all cases: cryo-EM structure
[1] = biological target: PHF5A (human (endogenous in FreeStyle 293-F), UniProt Q7RTV0 1-110)
[2] = biological target: SF3B6 (human (endogenous in FreeStyle 293-F), UniProt Q9Y3B4 1-125)
[3] = biological target: B1

Binder	binding result [1]	binding result [2]	binding result [3]
B1	binds	binds	–
B2	–	–	binds
B3	–	–	binds
